Measured values published in the supplement of paper PMC9170038.

Tested on: MS2 coat protein
Test: apparent KD of MS2 coat protein; designed switch direction (-1 OFF switch, 1 ON switch): 1; higher = weaker reporter binding
Outline: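 The reported apparent KD is a per-design median over clusters, from curve fits of normalised cluster fluorescence. Protein titrations used SNAP-549-labelled MS2 coat protein, doubled from 0.7 or 1.5 nM to 3 µM, in Tris-HCl pH 7.5 buffer with KCl, MgCl2, BSA, DTT, tRNA and Tween-20, with no input, 200 uM small-molecule ligand, or an oligonucleotide input. The RNA switches were transcribed on Illumina chips by stalled E. coli RNA polymerase.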

[1] = input ligand: microRNA oligo, concentration not stated
[2] = Eterna round: R95, input ligand: FMN 200 uM
[3] = Eterna round: R95, input ligand: microRNA oligo, concentration not stated
[4] = Eterna round: R95, input ligand: none

Sequence | apparent KD of MS2 coat protein (input ligand: FMN 200 uM) [nM] | apparent KD of MS2 coat protein [1] [nM] | apparent KD of MS2 coat protein (input ligand: none) [nM] | apparent KD of MS2 coat protein [2] [nM] | apparent KD of MS2 coat protein [3] [nM] | apparent KD of MS2 coat protein [4] [nM]
UGUUGUAUUACAGGAUAUCUAUGAUUUUUACUUAGAGAAGGGUAUUCACAUGAGGAUCACCCAUGUAUAUACGAGGAAGUUGUG [JMF's solution 67] (Eterna round: R96, puzzle: Same State NG 1) | 47.2 | 35.1 | 44.2 | – | – | –
UGUUGUAUUACAGGAUAUCUAUUAGUUUUGUUUAGAGAAGGGUAUUCACAUGAGGAUCACCCAUGUAUAUACGAGGAAGUUGUG [JMF's solution 97] (Eterna round: R96, puzzle: Same State NG 1) | – | 40.8 | – | – | – | –
UGUUGUAUUACAGGAUAUCUAUUAUUUUUAUUUAGAGAAGGGUAUUCACAUGAGGAUCACCCAUGUAUAUACGAGGAAGAUGUG [JMF's solution 5] (Eterna round: R96, puzzle: Same State NG 1) | – | 60.4 | – | – | – | –
UGUUGUAUUACAGGAUAUCUAUUGUUUUUACUUAGAGAAGGGUAUUCACAUGAGGAUCACCCAUGUAUAUACGAGGAAGUUGUG [JMF's solution 83] (Eterna round: R96, puzzle: Same State NG 1) | 39.2 | 31 | 41.8 | – | – | –
UGUUGUUAACUAGGAUAUGGUCACAUGAGGAUCACCCAUGUAAUGUCGAUGCUAUGUGGAUUUGAUCAGAAGGAGUGGUUAACA [SameState NG2 #99] (Eterna round: R96, puzzle: Same State NG 2) | 66.4 | 58.8 | 58.4 | – | – | –
UUAAUAAAUCAAGGAUAUCACGUCGAAUAGACGUGAGAAGGUGAUCAUAACAUGAGGAUCACCCAUGUAUUACAUGAAUAUUAA [SSNG1/1-B1] (Eterna round: R96, puzzle: Same State NG 1) | 522 | 40 | 512 | – | – | –
UUAAUAAAUCAAGGAUAUCACGUCGAUUAGACGUGAGAAGGUGAUCAUAACAUGAGGAUCACCCAUGUAUUACAUGAAUAUUAA [SSNG1/1-B2] (Eterna round: R96, puzzle: Same State NG 1) | 1810 | 721 | 659 | – | – | –
UUAAUAAUGUAAGGAUAUACAUGAGGAUUUCUCGUAGAAGGUACAUUACAUGAGGAUCACCCAUGUGGGUGUCAGAAGACGCCA [Mat - Same State NG 1 - JL mod - D13] (Eterna round: R96, puzzle: Same State NG 1) | 143 | 953 | 275 | – | – | –
UUAAUGAUGUUAGGAUAUACAUGAGGAAUCCUCGUAGAAGGAACAUGACAUGAGGAUCACCCAUGUAGCGCUCCGUAGAGCGCA [JL SSNG1 1.18] (Eterna round: R96, puzzle: Same State NG 1) | 2460 | 18.5 | 60.3 | – | – | –
UUACUCAUGUAAGGAUAUGCAGCCGUUUCGGCUGCAGAAGGUACUAUAAUACAUGAGGAUCACCCAUGUCUAUAAAAUAAAGAC [Mat - Same State NG 1 - JL mod - D81] (Eterna round: R96, puzzle: Same State NG 1) | 69.5 | 24 | 32.5 | – | – | –
UUCCCAGCGGGAGGAUAUGGUGCCUUAUUGGUGCUAGAAGGUCCAACAUGAGGAUCACCCAUGUGGGAGUGGUCUAAUGACCUC [SS NG10LRO07] (Eterna round: R96, puzzle: Same State NG 1) | – | 169 | – | – | – | –
UUCUCACAUGAGGAUCACCCAUGUGAGCCUCUGUGAGGAUAUCCGACAUAAUUAAUUGAAGGAGAAGGUACACGAG [Leer] (puzzle: Same State 1) | – | – | – | 130 | 4.78 | 24.9
UUGAAGAAUUAAGGAUAUUGAGUACAUAUGUUUAACAUGAGGAUCACCCAUGUGGGUUGCGGUAUCGAGAAGGUAAAUUACAAG [JL SSNG2 1.44] (Eterna round: R96, puzzle: Same State NG 2) | 105 | 91.8 | 138 | – | – | –
UUGAGGAAUUAAGGAUAUUGAGUACAUAUGUUUAACAUGAGGAUCACCCAUGUGGGUUGCGGUAUCGAGAAGGUAAAUUACUAC [salish99_SSNG2_r04_801] (Eterna round: R96, puzzle: Same State NG 2) | 113 | 73.2 | 120 | – | – | –
UUGCUCGUGUGAGGAUAUGCCGCCGUUUCGGCUGCAGAAGGUACUCUAAUACAUGAGGAUCACCCAUGUCUCUGUUGUUUCGUG [salish99_SSNG1_r04_935] (Eterna round: R96, puzzle: Same State NG 1) | 86.7 | 52.4 | 80.9 | – | – | –
UUGCUCGUGUGAGGAUAUGCCGCCGUUUCGGCUGCAGAAGGUACUUUAAUACAUGAGGAUCACCCAUGUCUCUGUUGUUUCGUG [salish99_SSNG1_r04_933] (Eterna round: R96, puzzle: Same State NG 1) | – | 23.1 | – | – | – | –
UUGGUUCUCGUAGGAUAUGUAGGAUAUUCCUACAUGAGGAUCACCCAUGUUCGCAUGGAAGAAGGACAGAAGGACGAUCACCAU [pwkr ssNG2 2FMN + 1F5.18] (Eterna round: R96, puzzle: Same State NG 2) | 54.8 | 1.88 | 14 | – | – | –
UUUAGCGUUACAGGAUAUGGUGAGGAUUACCCACUAGAAGGGUAAACAUGUGCGUCGGACAUGAGGAUCACCCAUGUAGGGCGU (Eterna round: R96, puzzle: Same State NG 1) | 28.4 | 21.6 | 32.4 | – | – | –
UUUAGUUGCGGGCAGGAUAUGUGUUAAAAUACAUGAGGAUCACCCAUGUGCGGGUAUAACACCCGACAGAAGGGCCAAUCGCGAC [Laonerce - 2] (Eterna round: R96, puzzle: Same State 2) | 13.5 | 44.2 | 54.9 | – | – | –
UUUAGUUGCGGGCAGGAUAUGUGUUAAAAUACAUGAGGAUCACCCAUGUGCGGGUAUAACACCCGACAGAAGGGCCAAUCGCGAC [Laonerce - 2] (puzzle: Same State 2) | – | – | – | 21.8 | 56.4 | 67.9
UUUCCAUAGAUAGGAUAUCAGUUUACAUGAGGAUCACCCAUGUUCUCUUUGGUUUUAAUUUUUUCUGAGAAGGAUCUUGAUGAA [JR_SSNG2_Sub001] (Eterna round: R96, puzzle: Same State NG 2) | 20.6 | 17.7 | 25.1 | – | – | –
UUUGGGUGGCUGGAGGAUAUUCUUGUGGUUACAUGAGGAUCACCCAUGUGCCGCGCGGUGCGCGAGGAGAAGGCUGGCGGCCGUU (puzzle: Same State 2) | – | – | – | 21.7 | 48.3 | 65.7
UUUUUGAUCCGAGGAUAUCCUUUUUUCUUACAUGAGGAUCACCCAUGUAAAGGGAUUGAGUUGUAGGAGAAGGCGGUUUUUGUU [JR_SSNG2_Sub059] (Eterna round: R96, puzzle: Same State NG 2) | 19.8 | 28.3 | 35 | – | – | –
